The source of these data is US7732133B2, “Screening methods for biologically active ligands” (Chugai Seiyaku Kabushiki Kaisha, priority 2000, dated 2010).

Data set [1] concerns the target T1, chimeric Flt-3 receptor (human Flt-3 extracellular domain / mouse G-CSF receptor) in Ba/F3 cell line FLG (Homo sapiens, UniProt P36888).
T1 construct: from the 1st to the 541st amino acid residues; expressed in transfected cells; host or cells: mouse Ba/F3 cells, clone FLG#102 = FLG
Kind of data set: Growth response of chimeric Flt-3 receptor-expressing Ba/F3 cell line FLG (WST-8). Format: cell-based. Particulars: 74 hours culture, WST-8 absorbance. The text has this: A chimeric receptor cDNA was constructed by linking cDNA fragments encoding the extracellular domain (from the 1st to the 541st amino acid residues; Small, D. et al. (1994) Proc. Natl. Acad. Sci. USA. 91, 459-463) of human Flt-3, and the transmembrane and intracellular domains (from the 602nd to the 813th amino acid residues; Fukunaga, R. et al. (1990) Cell 61, 341-350) of mouse G-CSF receptor. The cDNA was inserted downstream of the EF1α promoter of the mammalian expression vector pCOS2 to construct chimeric receptor-expression vector FLG/pCOS2. The FLG/pCOS2 was linearized with Hpa I (Takara Shuzo), extracted with phenol and chloroform, and purified by ethanol precipitation.
(§1) The linearized expression gene vector was introduced into mouse Ba/F3 cells using an electroporation apparatus (Gene Pulser: Bio Rad). […]
The cells were washed twice with Media A, and were suspended in Media A to give a cell density of 5×10^4 cells/mL. […] After the culture, 10 μl/well WST-8 reagent (Cell Count Reagent SF; Nacalai Tesque) was added, and pre-reaction absorbance at a measurement wavelength of 450 nm and a control wavelength of 655 nm was measured using microplate reader (Model 3550, Bio Rad). The plate was incubated for two hours in a CO2 incubator (CO2 concentration, 5%; humidity, 99.9%), and post-reaction absorbance was measured as above.
(Tetrazolium assays rely on reduction of a dye to a coloured formazan, in cell work by metabolically active cells.)

Data set [2] has as its target T2, chimeric G-CSF receptor (human G-CSF receptor extracellular domain / mouse G-CSF receptor) in Ba/F3 cell line GFG (UniProt P40223+Q99062).
T2 construct: the extracellular domain (from the −23rd to the 604th amino acid residues); expressed in transfected cells; host or cells: mouse Ba/F3 cells, clone GFG#342 = GFG
T2 sequence (Q99062+P40223 with tags, fused parts or gaps): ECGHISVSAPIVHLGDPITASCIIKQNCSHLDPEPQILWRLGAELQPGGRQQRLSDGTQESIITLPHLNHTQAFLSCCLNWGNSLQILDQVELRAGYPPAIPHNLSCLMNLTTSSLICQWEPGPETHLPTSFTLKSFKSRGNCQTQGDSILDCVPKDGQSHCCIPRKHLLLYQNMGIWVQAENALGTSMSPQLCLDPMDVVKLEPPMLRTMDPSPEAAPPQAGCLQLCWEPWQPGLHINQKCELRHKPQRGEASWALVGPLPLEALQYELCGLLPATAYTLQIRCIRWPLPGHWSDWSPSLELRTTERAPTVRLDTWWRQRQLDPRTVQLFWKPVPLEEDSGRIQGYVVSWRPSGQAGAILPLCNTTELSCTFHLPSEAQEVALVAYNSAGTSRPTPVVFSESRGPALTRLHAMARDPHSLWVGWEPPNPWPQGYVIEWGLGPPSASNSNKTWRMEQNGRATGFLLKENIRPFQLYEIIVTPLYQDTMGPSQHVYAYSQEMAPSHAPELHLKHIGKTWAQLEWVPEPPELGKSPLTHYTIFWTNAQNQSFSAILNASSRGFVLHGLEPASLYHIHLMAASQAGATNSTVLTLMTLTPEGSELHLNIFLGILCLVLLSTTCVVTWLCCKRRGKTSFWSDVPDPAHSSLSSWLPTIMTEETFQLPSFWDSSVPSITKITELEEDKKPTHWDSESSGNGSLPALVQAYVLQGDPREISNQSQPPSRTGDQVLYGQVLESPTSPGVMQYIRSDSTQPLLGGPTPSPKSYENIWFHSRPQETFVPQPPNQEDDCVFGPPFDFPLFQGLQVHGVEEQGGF
Kind of data set: Growth response of chimeric G-CSF receptor-expressing Ba/F3 cell line GFG (WST-8). Format: cell-based. Particulars: 70 hours culture, WST-8 absorbance.
Source text: A chimeric receptor cDNA was constructed by linking cDNA fragments encoding the extracellular domain (from the −23rd to the 604th amino acid residues; Fukunaga, R. et al. (1990) Proc. Natl. Acad. Sci. USA 87, 8702-8706) of human G-CSF receptor, and the transmembrane and intracellular domains (from the 602nd to the 813th amino acid residues; Fukunaga, R. et al. (1990) Cell 61, 341-350) of mouse G-CSF receptor. The cDNA was inserted downstream of the HEF1α promoter of the mammalian expression vector pCOS-G to construct chimeric receptor-expression vector GG/pCOS-G. GG/pCOS-G was linearized with Pvu I (Takara Shuzo), extracted with phenol and chloroform, and purified by ethanol precipitation.
as §1
The cells were washed twice with Media A, and were suspended in Media A to give a cell density of 5×10^4 cells/mL. […] After the culture, 10 μl/well WST-8 reagent (Cell Count Reagent SF; Nacalai Tesque) was added, and pre-reaction absorbance at a measurement wavelength of 450 nm and a control wavelength of 655 nm was measured using microplate reader (Model 3550, Bio Rad). The plate was incubated for two hours in a CO2 incubator (CO2 concentration, 5%), and post-reaction absorbance was measured as above.

Data set [3] concerns mixed culture of cell lines GFG, EPG, TPG and parental Ba/F3. In words: Cytokine responses in mixed and individual cell cultures (Example 2). It counts as cell-based, mouse. As to conditions: mixed culture of four cell lines (each 4×10^3 cells/well), similar in individual cultures, 72 hours, WST-8; listed as hG-CSF. Here is the method: Mixed culture of the cell lines GFG, EPG, and TPG, which express human G-CSF, EPO, and TPO chimeric receptors, respectively, and their parental cell line Ba/F3 was conducted and their response to various cytokines was examined.
The cells were washed twice with RPMI1640 media containing 2% fetal bovine serum, and then were suspended in RPMI1640 containing 10% fetal bovine serum. The four cell lines were mixed by adjusting each of the cell lines to 4×10^4 cells/mL (16×10^4 cells/mL in total) for the mixed culture, and, for individual cultures, cells were prepared at 4×10^4 cells/mL. 100 μL each of the cells were independently seeded on a 96-well microtiter plate (flat bottom, Falcon). After adding 100 μL/well each of appropriately diluted cytokines, the cultures were cultured for 72 hours in a CO2 incubator (5% CO2 concentration). After the culture, 10 μL/well WST-8 reagent (Cell Count Reagent SF; Nacalai Tesque) was added, and pre-reaction absorbance at a measurement wavelength of 450 nm and a control wavelength of 655 nm was measured using a microplate reader (Model 3550, Bio Rad). The plate was incubated for two hours in a CO2 incubator (CO2 concentration, 5%), and post-reaction absorbance was measured as above. Data were graphed out taking the cytokine concentrations on the horizontal axis and the amount of changes in absorbance after 2-hour incubation on the vertical axis (FIGS. 18, 19, and 20).

Data set [4] in a line: Titer of human EPO and G-CSF prepared from recombinant CHO cells.

B1: human Flt-3 ligand: human Flt-3 ligand (Genzyme) (protein, UniProt P49771 27-235, looked up)
Fms-related tyrosine kinase 3 …: TQDCSFQHSPISSDFAVKIRELSDYLLQDYPVTVASNLQDEELCGGLWRLVLAQRWMERLKTVAGSKMQGLLERVNTEIHFVTKCAFQPPPSCLRFVQTNISRLLQETSEQLVALKPWITRQNFSRCLELQCQPDSSTLPPPWSPRPLEATAPTAPQPPLLLLLLLPVGLLLLAAAWCLHWQRTRRRTPRPGEQVPPVPSPQDLLLVEH
As for B1, the “concentration at which an evident growth reaction was observed” value in data set [1] is listed as no less than 300 pg/mL.

B2: granulocyte-colony stimulating factor (protein, UniProt P09919 31-207, looked up)
Granulocyte …: TPLGPASSLPQSFLLKCLEQVRKIQGDGAALQEKLVSECATYKLCHPEELVLLGHSLGIPWAPLSSCPSQALQLAGCLSQLHSGLFLYQGLLQALEGISPELGPTLDTLQLDVADFATTIWQQMEELGMAPALQPTQGAMPAFASAFQRRAGGVLVASHLQSFLEVSYRVLRHLAQP
notes: human G-CSF prepared from recombinant CHO cells
Regarding B2, in data set [2], the “concentration at which an evident growth reaction was observed” value was no less than 10 pg/mL. Further, the “concentration where the response was observed to start” value in data set [3] is 2 pg/mL. Moreover, the titer in data set [4] is recorded as 1.2×10^8 IU/mg.
